First the molecules themselves.
B1: H4H18440P2 (antibody, human IgG4, V domains shown)
VH: QVQLVESGGGMVKPGGSLRLSCAASGFTFSDYYMSWIRQAPGKGLEWISHISITGSTIYYADSVKGRFTISRDNAKNSLYLEMNRLRDEDTAVYYCTRDEPDIVLVRYGMDVWGQGTTVTVSS
VL: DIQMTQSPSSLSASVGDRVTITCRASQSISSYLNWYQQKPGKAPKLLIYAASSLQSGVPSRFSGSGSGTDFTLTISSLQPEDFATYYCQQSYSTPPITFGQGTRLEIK
notes: H4H prefix: human IgG4 Fc
B2: H4H18462P2 (antibody, human IgG4, V domains shown)
VH: EVQLVESGGDLVQPGRSLRLSCAASGFTFSSFAMSWVRQAPGRGLEWVSSLSDSGDNTYYADSVKGRFTISRDNSKNTLYLQMNNLRAEDTAVYYCAKDLFSGWLFHGFDVWGQGTMVTVSS
VL: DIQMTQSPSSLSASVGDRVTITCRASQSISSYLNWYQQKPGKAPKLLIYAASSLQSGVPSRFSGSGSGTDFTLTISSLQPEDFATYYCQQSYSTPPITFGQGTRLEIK
notes: H4H prefix: human IgG4 Fc
B3: H4H18437P2 (antibody, human IgG4, V domains shown)
VH: QVQLVESGGGVVQPGRSLRLSCAASGFTFSSYGIHWVRQAPGKGLEWVAVISYDGNNKYYADSVKGRFTISRDNSKNTLYLQMNSLRAEDTAVYYCAKDLFLEWLFHGMGVWGQGTTVTVSS
VL: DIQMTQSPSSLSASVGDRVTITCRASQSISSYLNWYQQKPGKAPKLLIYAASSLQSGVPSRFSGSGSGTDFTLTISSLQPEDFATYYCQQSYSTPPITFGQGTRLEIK
notes: H4H prefix: human IgG4 Fc
B4: H4H18439P2 (antibody, human IgG4, V domains shown)
VH: QLQLQESGPGLVKPSETLSLTCIVSGGDITSSSYYWNWIRQPPGKGLEWIGNIYYSGSTNYNPSLKSRVTISIDTSKSQFSLKLRSVTAADTAVYYCARLLRYFDWSKGYLDYWGQGTLVTVSS
VL: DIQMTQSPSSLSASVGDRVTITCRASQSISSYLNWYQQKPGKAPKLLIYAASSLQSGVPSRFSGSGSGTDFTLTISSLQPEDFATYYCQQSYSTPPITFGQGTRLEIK
notes: H4H prefix: human IgG4 Fc
B5: H4H17322P2 (antibody, human IgG4, V domains shown)
VH: QLQLQESGPGLVKPSETLSLTCTVSGASISSSRFYGGWIRQPPGKGLEWIGDIYYSGNTYYNPSLQSRVTISVDTSKNQFSLKLSSVTAADTAVYYCARHLMITFGGLIVEGFDIWGQGTMVTVSS
VL: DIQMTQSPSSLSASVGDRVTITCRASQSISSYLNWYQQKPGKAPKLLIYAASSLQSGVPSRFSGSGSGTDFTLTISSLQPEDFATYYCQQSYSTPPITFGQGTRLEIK
notes: H4H prefix: human IgG4 Fc
B6: H4H18457P2 (antibody, human IgG4, V domains shown)
VH: EVQLVESGGSVVRPGESLRLSCAASGFTFDDYGMSWVRQAPGKGLEWVSGISWNGGITVYADSVKGRFTVSRDNAKNSLYLQMNSLRAEDTALYHCARARYGGADYWGQGTLVTVSS
VL: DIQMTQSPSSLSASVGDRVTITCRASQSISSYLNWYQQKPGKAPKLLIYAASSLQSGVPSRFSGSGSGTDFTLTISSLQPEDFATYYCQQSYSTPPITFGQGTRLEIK
notes: H4H prefix: human IgG4 Fc
B7: H4H18466P2 (antibody, human IgG4, V domains shown)
VH: EVQLVESGGGLVQPGGSLRLSCTASGFTFSSYGLHWVRQAPGKGLEYVSSINHNGGSKYYADSVKGRFTISRDNSKNTLFLQMGSLKTEDMAVYYCARDLFLEWLFHGFDIWGQGTMVTVSS
VL: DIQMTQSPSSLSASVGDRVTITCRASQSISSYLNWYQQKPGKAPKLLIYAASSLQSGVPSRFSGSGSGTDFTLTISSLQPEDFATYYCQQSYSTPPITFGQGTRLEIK
notes: H4H prefix: human IgG4 Fc
B8: H4H18464P2 (antibody, human IgG4, V domains shown)
VH: QVQLVQSGPEVKKPGASVKVSCKGSGYTFSWYGISWIRQAPGHGLEWMGWISASSGNTRFAQKVQGRLTMTTDTSTSTAYMELRSLRSDDTAVYYCARTGTRPFDYWGQGTLVTVSS
VL: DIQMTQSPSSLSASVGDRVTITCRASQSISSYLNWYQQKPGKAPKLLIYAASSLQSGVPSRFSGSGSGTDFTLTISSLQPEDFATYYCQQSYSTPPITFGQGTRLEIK
notes: H4H prefix: human IgG4 Fc

The source of these data is US20200123264A1 (Regeneron, published 2020).

The assay deals with T1, recombinant human LEPR extracellular domain expressed with a C-terminal mouse IgG2a Fc tag (human).
T1 construct: Dimeric construct; also called hLEPR.mFc; hLEPR-mFc
T1 chain: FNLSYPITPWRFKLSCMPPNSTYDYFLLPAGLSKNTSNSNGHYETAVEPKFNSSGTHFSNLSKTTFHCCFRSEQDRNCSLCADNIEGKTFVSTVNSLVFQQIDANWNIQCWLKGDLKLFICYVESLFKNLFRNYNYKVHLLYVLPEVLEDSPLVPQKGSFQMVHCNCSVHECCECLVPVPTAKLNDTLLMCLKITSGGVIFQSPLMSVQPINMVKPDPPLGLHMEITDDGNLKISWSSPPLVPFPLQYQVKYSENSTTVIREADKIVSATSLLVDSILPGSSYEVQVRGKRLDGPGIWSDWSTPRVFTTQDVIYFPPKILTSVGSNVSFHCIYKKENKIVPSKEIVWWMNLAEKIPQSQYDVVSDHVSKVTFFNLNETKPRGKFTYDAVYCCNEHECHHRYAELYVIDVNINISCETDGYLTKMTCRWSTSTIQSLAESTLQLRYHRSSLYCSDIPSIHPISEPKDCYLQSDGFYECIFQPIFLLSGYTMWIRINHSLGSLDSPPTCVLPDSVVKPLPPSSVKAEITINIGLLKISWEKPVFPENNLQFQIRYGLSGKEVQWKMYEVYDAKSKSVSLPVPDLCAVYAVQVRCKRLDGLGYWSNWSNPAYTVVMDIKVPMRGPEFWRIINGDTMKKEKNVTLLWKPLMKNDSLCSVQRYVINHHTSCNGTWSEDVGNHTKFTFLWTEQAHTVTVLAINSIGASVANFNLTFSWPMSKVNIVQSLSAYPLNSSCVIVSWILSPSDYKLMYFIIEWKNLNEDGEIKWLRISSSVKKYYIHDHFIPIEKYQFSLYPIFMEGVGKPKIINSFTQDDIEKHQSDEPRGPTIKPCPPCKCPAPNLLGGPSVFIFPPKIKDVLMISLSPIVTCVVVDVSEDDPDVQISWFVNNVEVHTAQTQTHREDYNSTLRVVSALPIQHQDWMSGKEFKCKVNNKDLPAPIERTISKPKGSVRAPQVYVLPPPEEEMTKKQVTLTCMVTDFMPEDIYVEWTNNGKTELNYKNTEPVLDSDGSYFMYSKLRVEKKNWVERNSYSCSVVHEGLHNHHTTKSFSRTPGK
Put plainly: SPR, mAb captured, 25 C. The method, then: Equilibrium dissociation constants (KD values) for antigen binding to purified anti-LEPR monoclonal antibodies of the invention were determined using a real-time surface plasmon resonance biosensor using a Biacore 4000 instrument. All binding studies were performed in running buffer containing 10 mM HEPES, 150 mM NaCl, 3 mM EDTA, and 0.05% v/v Surfactant Tween-20, pH 7.4 (HBS-ET running buffer) at 25° C. and 37° C. The Biacore sensor surface was first derivatized by amine coupling with a monoclonal mouse anti-human Fc antibody (GE, # BR-1008-39) to the capture anti-LEPR monoclonal antibodies. The LEPR reagents tested for binding to the anti-LEPR monoclonal antibodies included recombinant human LEPR extracellular domain expressed with a C-terminal myc-myc-hexahistidine tag (hLEPR.MMH; SEQ ID NO:90), recombinant cynomolgus monkey LEPR extracellular domain expressed with a C-terminal myc-myc-hexahistidine tag (mfLEPR.MMH; SEQ ID NO:93), recombinant mouse LEPR extracellular domain expressed with a C-terminal myc-myc-hexahistidine tag (mLEPR.MMH; SEQ ID NO:94), recombinant rat LEPR extracellular domain expressed with a C-terminal myc-myc-hexahistidine tag (rLEPR.MMH; SEQ ID NO:95), and recombinant human LEPR extracellular domain expressed with a C-terminal mouse IgG2a Fc tag (hLEPR.mFc; SEQ ID NO:91). LEPR constructs that include MMH tags are monomeric LEPR constructs, and LEPR constructs including an mFc tag are dimeric LEPR constructs. […] The dissociation of monoclonal antibody bound LEPR reagent was monitored for 10 minutes in HBS-ET running buffer. Kinetic association (10 and dissociation (10 rate constants were determined by fitting the real-time binding sensorgrams to a 1:1 binding model with mass transport limitation using Scrubber 2.0c curve-fitting software. Binding dissociation equilibrium constants (KD) and dissociative half-lives (t½) were calculated from the kinetic rate constants as: […]
In the case of B1, the “100 nM hLEPR-mFc Bound (RU)” value is 140 RU, the Kd turned out to be 0.443 nM, the koff is 6.82e-05 s⁻¹ and the kon was found to be 154000 M⁻¹ s⁻¹. For the same molecule, the t½ came to 169 min.

For B2, the “100 nM hLEPR-mFc Bound (RU)” value is 68 RU, the Kd amounted to 3.26 nM, the koff is 0.000296 s⁻¹ and the kon stood at 90800 M⁻¹ s⁻¹. Further, the t½ was 39 min.

Regarding B3, the “100 nM hLEPR-mFc Bound (RU)” value was 70 RU, the Kd was 5.27 nM, the koff was determined as 0.000536 s⁻¹ and the kon is 102000 M⁻¹ s⁻¹. For the same molecule, the t½ was found to be 22 min.

Take B4: the “100 nM hLEPR-mFc Bound (RU)” value is 53 RU, the Kd amounted to 3.69 nM, the koff was 0.00018 s⁻¹ and the kon came out at 48700 M⁻¹ s⁻¹. In addition, the t½ came to 64 min.

For B5, the “100 nM hLEPR-mFc Bound (RU)” value was 74 RU, the dissociation constant Kd turned out to be 1.77 nM, the koff was found to be 0.000114 s⁻¹ and the kon is 64500 M⁻¹ s⁻¹. In addition, the t½ is 102 min.

Take B6: the “100 nM hLEPR-mFc Bound (RU)” value was 149 RU, the Kd was 0.863 nM, the koff amounted to 0.000423 s⁻¹ and the kon worked out at 491000 M⁻¹ s⁻¹. Moreover, the t½ worked out at 27 min.

In the case of B7, the “100 nM hLEPR-mFc Bound (RU)” value is 37 RU, the Kd worked out at 11.9 nM, the koff worked out at 0.000472 s⁻¹ and the kon came out at 39700 M⁻¹ s⁻¹. The t½ came out at 24 min.

As for B8, the “100 nM hLEPR-mFc Bound (RU)” value was found to be 84 RU, the Kd amounted to 0.891 nM, the off-rate constant (koff) stood at 0.000188 s⁻¹ and the kon stood at 211000 M⁻¹ s⁻¹. Moreover, the t½ was found to be 61 min.

By Kd is commonly meant a measure of binding affinity in units of concentration. As usually defined, the koff is the first-order rate constant of dissociation. Usually kon stands for a measure of how fast the partners come together. For orientation: t½ means the time needed for the level to fall by half in the phase considered.
